The supplement of paper PMC6755084

System: F1*sub RNA substrate (template-directed ligation)
Assay: fraction ligated after 30 min (ligated reads / total reads); higher = more ligase activity; sequences stand for … in GAGACCGCAACTGAAAAGTTGT…AGTTCTGCACGTAGAAGCAAAAGGC
Conditions: 42 °C
Method in brief: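 Ligase ribozyme variants were made from oligo-pool templates by PCR amplification, T7 transcription and gel purification. After gel separation, ligated and unligated bands were reverse transcribed with barcoded primers and sequenced on a MiSeq, with core bases filtered at quality ≥20. The fraction ligated for each variant was the number of ligated reads divided by total reads.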

Sequence | fraction ligated
TACCTTTCGTAAGACACTTTGGATGGGTTGA [3d529] | 0.435
TATACTTGTCGTAAGACACTTTGATGGTTGA [3d935] | 0.0546
TATCACTTGTCGTAAGACCTTTGGTGGGTTA [3d2198] | 0.0357
TACACTGTCGTAAGACACTTTGGATGGTTGA [3d582] | 0.375
TATCACTTGTCAAGACACTTTGGAGGGTTGA [3d1819] | 0.138
TATCACTTGTCGTAAACATTTGGTGGGTTGA [3d2076] | 0.0521
TATCACTTGTCGTAAGACCTTTGGAGGGTTG [3d2202] | 0.0402
TATCACTGTCGTAAGACACTGGATGGGTTGA [3d1440] | 0.824
TATCACTTGCGTAGACACTTTGGATGGTTGA [3d1636] | 0.296
TATACTTGTGTAAGACACTTTGGATGGGTTGA [2d74] | 0.805
ATCATTGTCGTAAACACTTTGGATGGGTTGA [3d93] | 0.77
TATCACTTGTCGTAACACTTGGATGGGTTGA [3d1996] | 0.773
TATCACTTGTCGTAAGACACTTGTGGGTTGA [3d2239] | 0.00905
ATCACTTTCGTAAGACACTTGGATGGGTTGA [3d133] | 0.748
TATCACTTGTCGAAACACTTTGGTGGGTTGA [3d1920] | 0.0386
TTACTGTCGTAAGACACTTTGGATGGGTTGA [3d279] | 0.226
ATCACTTTCGTAAGACACTTTGGAGGGTTGA [3d136] | 0.0337
TATCACTGTGTAAGCACTTTGGATGGGTTGA [3d1347] | 0.878
TTCACTTGTCGTAAGCACTTTGGTGGGTTGA [3d457] | 0.0197
ATCACTTTCGTAGACACTTTGGATGGGTTGA [3d127] | 0.781
TATCACTTGTCGTAAACCTTTGGATGGGTTGA [2d235] | 0.785
ATCATTGTCGTAAGACACTTGGATGGGTTGA [3d98] | 0.726
ATCACTTGTGTAAGACCTTTGGATGGGTTGA [3d162] | 0.811

Sequence | fraction ligated
TATCACTTGTCTAAGACACTTTGGATGGTTG [3d1899] | 0.408
TTCACTTGTCGTAAGACACTTGGATGGGTTA [3d489] | 0.0495
TATCACTTGCGAAGACACTTTGGATGGGTTGA [2d165] | 0.835
TACACTTGCGTAAGACACTTTGGATGGTTGA [3d614] | 0.102
TATCACTTGCGTAACACTTTGGATGGGTTGA [3d1627] | 0.786
TACACTTGTCGAAGACACTTTGGATGGGTTA [3d657] | 0.13
TATCCTTGTCGTAAGACACTTTGGTGGGTTA [3d1112] | 0.0152
TATCACTTGTCGTAGACACTTTGGATGGGTT [3d2057] | 0.819
ATCACTTGTCGAAGCACTTTGGATGGGTTGA [3d187] | 0.736
TACACTTGTCGTAAGAACTTTGGATGGTTGA [3d697] | 0.0122
TACATTGTCGTAAGACACTTTGATGGGTTGA [3d560] | 0.232
TATCACTTGTCGTAAGAACTTTGGTGGTTGA [3d2173] | 0.0396
TATCATTGTCGTAAGAACTTTGGATGGGTTA [3d1253] | 0.623
TATCACTTTCGTAAGACCTTGGATGGGTTGA [3d1547] | 0.766
TATCACTTGTCGAGACATTTGGATGGGTTGA [3d1907] | 0.829
TATCACTTGTCGTAGAACTTTGGATGGGTTGA [2d224] | 0.864
TATCACTTGGTAAGACACTTTGATGGGTTGA [3d1593] | 0.776
ATCACTTGTCGTAAGCACTTTGGATGGGTTGA [2d14] | 0.782
TTCCTTGTCGTAAGACATTTGGATGGGTTGA [3d309] | 0.756
TATCACTGTCTAAGACACTTGGATGGGTTGA [3d1365] | 0.789
TATCACTGTCGAAGACACTTGGATGGGTTGA [3d1378] | 0.812
TATCACTTCGTAAGACATTTGGATGGGTTGA [3d1319] | 0.84
TATCACTTGTCTAGACACTTTGGATGGGTTA [3d1834] | 0.738

Sequence | fraction ligated
TATCACTTCGTAAGACACTTTGGATGGGTTA [3d1325] | 0.706
ATACTTGTCGTAAGACACTTTGGTGGGTTGA [3d62] | 0.0395
TATCACTTGTCGTAAGACATTTGGTGGTTGA [3d2221] | 0.0037
TTCACTTGTCGTAAGCACTTTGGATGGGTTGA [2d36] | 0.771
TATCACTTGTCTAAGCACTTGGATGGGTTGA [3d1849] | 0.766
TACACTTGTCGTAAGAACTTTGATGGGTTGA [3d694] | 0.00588
TATCACTGTCGAAGCACTTTGGATGGGTTGA [3d1374] | 0.826
TACTTGTCGTAAGACACTTTGGATGGGTTGA [3d2] | 0.486
TATACTTGTCGAAGACACTTTGGATGGGTTA [3d868] | 0.0412
TATACTTGTCTAAACACTTTGGATGGGTTGA [3d845] | 0.791
TATACTTTCGTAAGACATTTGGATGGGTTGA [3d804] | 0.754
ATCACTTTCGTAAGACACTTTGGATGGGTTA [3d138] | 0.137
TATCACTTGTCGAAGACACTTGGAGGGTTGA [3d1960] | 0.0758
TATCACTTGCGTAGACACTTTGGAGGGTTGA [3d1635] | 0.105
TACACTTTCGTAAGACATTTGGATGGGTTGA [3d593] | 0.292
TATCACTGTGTAAGACACTTTGGATGGGTTGA [2d131] | 0.887
TATCACTTGTCGTAAACACTTTGAGGGTTGA [3d2090] | 0.0504
TATCACTTGTTAAGACACTTTGGATGGGTTA [3d1716] | 0.778
TTCACTTGTCGTAAGACCTTGGATGGGTTGA [3d470] | 0.678
TATCCTTGTCGTAAGAACTTTGATGGGTTGA [3d1077] | 0.8
TATCACTTGTCGAAGCATTTGGATGGGTTGA [3d1927] | 0.811
TATCACTTGTCGAAGACATTTGGTGGGTTGA [3d1952] | 0.05
TATCACTTGCGAAACACTTTGGATGGGTTGA [3d1614] | 0.819

Sequence | fraction ligated
TACACTTGTCGTAAACACTTTGGATGGGTTG [3d681] | 0.0503
TATCACTTGTGTAGCACTTTGGATGGGTTGA [3d1733] | 0.841
ATCACTTGTGTAAGACACTTTGGATGGGTTG [3d170] | 0.838
TTCACTTGTCGTAAGACACTGGATGGGTTGA [3d484] | 0.705
TATCACTGTCGTAGACACTTTGGATGGGTTG [3d1397] | 0.811
TATCACTTGTCGAAGACACTTGGTGGGTTGA [3d1959] | 0.119
TATCACTGTCGTAAGACACTTTGGATGGTTG [3d1461] | 0.33
TATCATTGTCGTAAGACACTGGATGGGTTGA [3d1269] | 0.783
TATACTTGTCGTAAGACACTTGGTGGGTTGA [3d927] | 0.049
TATCATTGCGTAAGACATTTGGATGGGTTGA [3d1164] | 0.802
ATCACTTGTCGTAAGACACTTGGATGGTTGA [3d257] | 0.216
TATCACGTCGTAAGACACTTTGGATGGGTTG [3d1310] | 0.782
TATACTTGTCGTAAGCACTTTGGTGGGTTGA [3d898] | 0.025
TATCACTTGTCGTGAACTTTGGATGGGTTGA [3d1983] | 0.773
TATCACTTGTGTAAGACATTTGGATGGGTTG [3d1785] | 0.838
TATCACTTGTCGTAAGACATTGGTGGGTTGA [3d2209] | 0.0429
TACACTTGTCGTAAGACACTTTATGGGTTGA [3d721] | 0.0103
TATCACTGTCTAAGACCTTTGGATGGGTTGA [3d1363] | 0.795
TATCACTTGTCGTAAACACTTGGATGGTTGA [3d2085] | 0.105
TTCACTTGCGTAAGACACTTTGGTGGGTTGA [3d382] | 0.00525
TATCACTTGTCGAAACATTTGGATGGGTTGA [3d1917] | 0.821
TATCACTTGTCGTAAACATTTGGAGGGTTGA [3d2077] | 0.0367
TACACTTGTCGTAAGACACTTGGTGGGTTGA [3d716] | 0.0903

Sequence | fraction ligated
TATCACTTGTCGTAAGACACTTGATGGGTTG [3d2243] | 0.239
TAACTTTCGTAAGACACTTTGGATGGGTTGA [3d510] | 0.0478
TTCACTTGTCGAAGACACTTTGGATGGTTGA [3d426] | 0.578
TAACTTGTCGTAAGAACTTTGGATGGGTTGA [3d518] | 0.21
TATCCTTGTGTAAGACACTTGGATGGGTTGA [3d1008] | 0.367
TTCCTGTCGTAAGACACTTTGGATGGGTTGA [3d298] | 0.746
TATACTTGTCGTAAGACACTTTGGTGGGTTG [3d941] | 0.0139
TTCATTGTCGTAAGACACTTTGGTGGGTTGA [3d331] | 0.106
ATCACTTGTCGTAAGACACTTTGTGGGTTGA [3d261] | 0.0128
TATCACGTCGTAAGACATTTGGATGGGTTGA [3d1303] | 0.807
TATCACTTTCGTAAGACACTTGGATGGGTTG [3d1567] | 0.773
TATCCTTGTGTAAGACACTTTGATGGGTTGA [3d1009] | 0.799
ACACTTGTCGTAAGACACTTTGGTGGGTTGA [3d41] | 0.0656
TATCACTTGTCGTAAGACATTTATGGGTTGA [3d2214] | 0.0203
TACATTGTCTAAGACACTTTGGATGGGTTGA [3d551] | 0.0666
TTCACTGTCGTAAGACATTTGGATGGGTTGA [3d347] | 0.755
TATCACTTGTGTAAGACACTTTGATGGGTTA [3d1797] | 0.0515
TATCACTTGCGTAAGACCTTTGGATGGGTTA [3d1672] | 0.785
TCACTTGTCGTAGACACTTTGGATGGGTTGA [3d11] | 0.765
TACACTTGTCGTAAGACATTTGGATGGGTTA [3d712] | 0.0725
